The values below come from patent US20210047427A1 (Takeda / Millennium, published 2021).

The target in the assay is T1, cynomolgus CD38 (cynomolgus monkey, UniProt Q5VAN0 1-301).
T1 construct: In the assays it is native CD38 on cynomolgus monkey blood lymphocytes; also called cyno CD38; monkey CD38
Description: Flow cytometry of cynomolgus monkey whole blood stained with labelled AB79. MFI converted to MOEF with Rainbow Beads. NK (CD3-, CD159a+), B (CD3-, CD20+) and T (CD3+) cells; 3 individuals, mean with SD.
Description: The flow cytometric measurements were standardized and the signals are reported in molecules of equivalent soluble fluorescence (MOEF). […] Direct comparison of CD38 expression levels on monkey NK cells (CD3−, CD159a+), B cells (CD3−, CD20+) and T cells (CD3+) and human NK cells (CD3−, CD16/CD56+), B cells (CD3−, CD19+) and T cells (CD3+) were evaluated by flow cytometry.
An aliquot of blood (100 μL) was mixed with appropriate volume of antibody (FIG. 1) and incubated for 15-20 minutes at RT in the dark. After incubation, 1 mL of BD FACS lyse (1×; BD Biosciences; San Jose, Calif.) was added to lyse red blood cells and the cells incubated for 10 minutes at RT in the dark, then centrifuged, decanted and resuspended in 1 mL of staining buffer with bovine serum albumin (BD Biosciences).

T1 sequence (Q5VAN0 whole entry): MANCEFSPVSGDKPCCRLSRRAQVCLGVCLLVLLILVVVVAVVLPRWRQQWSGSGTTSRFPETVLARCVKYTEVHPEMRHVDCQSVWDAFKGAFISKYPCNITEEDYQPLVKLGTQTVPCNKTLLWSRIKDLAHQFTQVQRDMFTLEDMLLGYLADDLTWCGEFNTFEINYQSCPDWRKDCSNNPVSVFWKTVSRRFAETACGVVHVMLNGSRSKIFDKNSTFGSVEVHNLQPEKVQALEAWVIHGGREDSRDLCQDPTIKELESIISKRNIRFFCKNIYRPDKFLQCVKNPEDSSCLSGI

B1: AB79 (antibody, human IgG1, lambda, V domains shown)
VH: EVQLLESGGGLVQPGGSLRLSCAASGFTFDDYGMSWVRQAPGKGLEWVSDISWNGGKTHYVDSVKGQFTISRDNSKNTLYLQMNSLRAEDTAVYYCARGSLFHDSSGFYFGHWGQGTLVTVSS
VL: QSVLTQPPSASGTPGQRVTISCSGSSSNIGDNYVSWYQQLPGTAPKLLIYRDSQRPSGVPDRFSGSKSGTSASLAISGLRSEDEADYYCQSYDSSLSGSVFGGGTKLTVLG
Regarding B1, the binding result is “binds”.
